The values below come from patent US20210032287A1.

The assay deals with Syntaxin-1 (GST-tagged) (Homo sapiens (Human)) (UniProt Q16623). Description: ELISA-based competition assay; peptide (0.1, 0.5, 1 mM) preincubated with GST-Syntaxin-1 (10 or 5 nM), added to His-Munc18 (100 nM) on a nickel plate; anti-GST detection, A450. On the technique in general: An ELISA detects its analyte on a solid surface through an enzyme-linked reagent.
Chain of Syntaxin-1 (GST-tagged) (Homo sapiens (Human)) (Q16623 1-261 limits assumed): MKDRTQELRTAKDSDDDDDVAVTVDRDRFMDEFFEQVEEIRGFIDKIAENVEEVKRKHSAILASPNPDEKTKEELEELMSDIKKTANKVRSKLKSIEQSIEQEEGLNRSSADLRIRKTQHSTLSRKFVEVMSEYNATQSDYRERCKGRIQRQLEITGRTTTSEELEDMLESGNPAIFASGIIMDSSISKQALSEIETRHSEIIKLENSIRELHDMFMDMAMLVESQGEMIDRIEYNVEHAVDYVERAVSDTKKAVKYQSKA

Ac-HILDMW-NH2 yielded a maximum inhibition of Munc18/Syntaxin-1 binding of 67%. The substance “Ac-His-Ala-Leu-Arg-Phe-Trp-NH2 (peptide)” came in with a maximum inhibition of Munc18/Syntaxin-1 binding of 37%.
